From patent publication US20220064322A1
Where a chain is given by its changes, count along the chain named. Where two headings read alike, the source gives them in different places. Each block holds one binder with its values, some of them ahead of it.

What was measured:
[1] = target: T1, human CD73 on the cell surface (293T/17-huCD73 cells) (human), P21589; experiment: cell-based or functional assay
[2] = target: human CD73 on the cell surface (293T/17-huCD73 cells) (human) (UniProt P21589); experiment: flow cytometry on 293T/17-human CD73 cells
Chain of human CD73 on the cell surface (293T/17-huCD73 cells) (human) (P21589 27-549): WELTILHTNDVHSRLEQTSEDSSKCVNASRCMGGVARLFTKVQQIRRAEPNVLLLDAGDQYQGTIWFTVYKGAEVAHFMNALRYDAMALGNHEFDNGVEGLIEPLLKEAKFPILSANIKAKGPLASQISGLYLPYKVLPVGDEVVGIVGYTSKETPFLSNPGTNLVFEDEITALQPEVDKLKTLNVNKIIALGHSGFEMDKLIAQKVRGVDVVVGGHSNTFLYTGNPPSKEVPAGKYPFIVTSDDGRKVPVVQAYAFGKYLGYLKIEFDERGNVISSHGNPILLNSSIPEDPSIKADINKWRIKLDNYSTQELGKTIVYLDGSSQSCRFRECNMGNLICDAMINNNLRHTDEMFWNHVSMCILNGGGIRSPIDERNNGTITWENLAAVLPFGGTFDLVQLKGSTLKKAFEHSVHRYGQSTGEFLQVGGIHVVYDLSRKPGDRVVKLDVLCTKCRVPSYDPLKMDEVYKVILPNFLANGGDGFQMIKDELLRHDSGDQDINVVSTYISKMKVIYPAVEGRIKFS

[3] = target: human CD73 on the cell surface (293T/17-huCD73 cells) (human) (UniProt P21589); experiment: flow cytometry on 293T/17 cells expressing huCD73, APC-labelled goat anti-human antibody, MFI
[4] = target: human CD73 on the cell surface (293T/17-huCD73 cells) (human) (UniProt P21589); experiment: flow cytometry on 293T/17-huCD73 cells, curve fit
[5] = target: human CD73 on the cell surface (293T/17-huCD73 cells) (human) (UniProt P21589); experiment: cell-based or functional assay
[6] = target: human CD73 on the cell surface (293T/17-huCD73 cells) (human) (UniProt P21589); experiment: flow cytometry on 293T/17-human CD73 cells, curve fit
[7] = target: human CD73 on the cell surface (293T/17-huCD73 cells) (human) (UniProt P21589); experiment: cell-based or functional assay; remark: listed apart in the source
[8] = target: human CD73 on the cell surface (293T/17-huCD73 cells) (human) (UniProt P21589); experiment: cell-based or functional assay; remark: listed apart in the source
[9] = target: human CD73 on the cell surface (293T/17-huCD73 cells) (human) (UniProt P21589); experiment: flow cytometry on 293T/17-huCD73 cells
[10] = target: T1, human CD73 on the cell surface …; experiment: cell-based or functional assay; remark: listed apart in the source
[11] = target: T1, human CD73 on the cell surface …; experiment: cell-based or functional assay; remark: listed apart in the source
[12] = target: human CD73 on the cell surface (293T/17-huCD73 cells) (human) (UniProt P21589); experiment: flow cytometry on 293T/17-huCD73 cells, fluorescently labelled detection antibody, MFI

T1 sequence (P21589 27-549): as above

B1: 66-hIgG2 (antibody)
heavy: QVHLQQSGAELAKPGASVNLSCKASGYAFTSYWMHWVKQRPGQGLEWIGYINPSSGLAKYNQKFKDKATLTTDKSSNTAYMQLSSLTYDDSAVYYCGRWLLSAWFAYWGQGTLVTVSAASTKGPSVFPLAPCSRSTSESTAALGCLVKDYFPEPVTVSWNSGALTSGVHTFPAVLQSSGLYSLSSVVTVPSSNFGTQTYTCNVDHKPSNTKVDKTVERKCCVECPPCPAPPVAGPSVFLFPPKPKDTLMISRTPEVTCVVVDVSHEDPEVQFNWYVDGVEVHNAKTKPREEQFNSTFRVVSVLTVVHQDWLNGKEYKCKVSNKGLPAPIEKTISKTKGQPREPQVYTLPPSREEMTKNQVSLTCLVKGFYPSDIAVEWESNGQPENNYKTTPPMLDSDGSFFLYSKLTVDKSRWQQGNVFSCSVMHEALHNHYTQKSLSLSPGK
light: DIKMTQSPSSIYASLGERVTITCKASQGINTYLSWFQQKPGKSPKTLIYRANILVDGVPSRFSGSGSGQDYSLTINSLEYEDMGIYYCLQYDEFPYTFGGGTKLEIKRTVAAPSVFIFPPSDEQLKSGTASVVCLLNNFYPREAKVQWKVDNALQSGNSQESVTEQDSKDSTYSLSSTLTLSKADYEKHKVYACEVTHQGLSSPVTKSFNRGEC
IC50, antibody-mediated internalization of CD73 on MDA-MB-231 cells (Fab-ZAP saporin conjugate) [1]: 22 pM

B2: 94-hIgG2 (antibody)
heavy: B1 heavy with H3Q, N19K, A28T, L57Y, A58T, Y60S, T72A, N77S, D89E
light: B1 light with K3R, I11M, G28D, T46S, A51S, N76S, E93D
IC50, antibody-mediated internalization of CD73 on MDA-MB-231 cells (Fab-ZAP saporin conjugate) [1]: 19 pM

B3: JB24Chi (antibody, human IgG1, kappa, V domains shown)
VH: QVQLQQSGLELVKPGASVKMSCKASGYTFTDYNMHWVKQSHGKSLEWIGYIKPHNGGTTYNPKFEGKATLTVNKSSSTAYMELRSLTSEDSAVYYCVRCDFLYWYFDVWGTGTTVTVSS
VL: DIVMTQSPAIMSASLGERVTMTCTASSSVSSSYLHWYQQKPGSSPKLWIYSTSNLASGVPGRFSGSGSGTSYSLTISSMEAEDAATYYCHQYHRSPLTFGAGTKLEMKR
EC50 [2]: 5330 pM | EC50 (read off the curve) [3]: 6000 pM | Bottom (fluorescence intensity) [4]: -1.47 | Top (fluorescence intensity) [4]: 42 | EC50, reversal of AMP-mediated human CD4+ T cell proliferation inhibition [5]: 3 pM | Bottom [6]: 3.72 fluorescence | Top [6]: 196 fluorescence | EC50, release of IFN-γ from CD4+ T cells (ELISA of supernatant) [7]: 13.2 pM | EC50, reversal of AMP-mediated human CD4+ T cell proliferation inhibition [7]: 7 pM | IC50, antibody-mediated internalization of CD73 on MDA-MB-231 cells (Fab-ZAP saporin conjugate) [7]: 12 pM | IC50, blockade of 5'exonuclease activity of U87-MG cells [7]: 53 pM | IC50, blockade of 5'exonuclease activity on 293T/17-HuCD73 cells [7]: 31 pM | IC50, blockade of 5'exonuclease activity on 293T/17-human CD73 cells [7]: 6 pM | IC50, blockade of CD73 enzyme activity of CD4+ T cells (CellTiter-Glo) [7]: 9 pM | EC50, release of IFN-γ from CD4+ T cells (ELISA of supernatant) [8]: 6 pM | EC50 [9]: 1140 pM

B6: 94H1L3 hIgG2 (antibody)
heavy: QVQLVQSGAEVKKPGASVKVSCKASGYTFTSYWMHWVRQAPGQGLEWMGYINPSSGYTKSNQKFKDRVTMTADTSTSTAYMELSSLRSEDTAVYYCGRWLLSAWFAYWGQGTLVTVSSASTKGPSVFPLAPCSRSTSESTAALGCLVKDYFPEPVTVSWNSGALTSGVHTFPAVLQSSGLYSLSSVVTVPSSNFGTQTYTCNVDHKPSNTKVDKTVERKCCVECPPCPAPPVAGPSVFLFPPKPKDTLMISRTPEVTCVVVDVSHEDPEVQFNWYVDGVEVHNAKTKPREEQFNSTFRVVSVLTVVHQDWLNGKEYKCKVSNKGLPAPIEKTISKTKGQPREPQVYTLPPSREEMTKNQVSLTCLVKGFYPSDIAVEWESNGQPENNYKTTPPMLDSDGSFFLYSKLTVDKSRWQQGNVFSCSVMHEALHNHYTQKSLSLSPGK
light: DIQMTQSPSSLSASVGDRVTITCKASQDINTYLSWFQQKPGKSPKSLIYRSNILVDGVPSRFSGSGSGQDYTLTISSLQPEDFAIYYCLQYDDFPYTFGQGTKLEIKRTVAAPSVFIFPPSDEQLKSGTASVVCLLNNFYPREAKVQWKVDNALQSGNSQESVTEQDSKDSTYSLSSTLTLSKADYEKHKVYACEVTHQGLSSPVTKSFNRGEC
EC50, reversal of AMP-mediated human CD4+ T cell proliferation inhibition [10]: 12 pM | IC50, blockade of 5'exonuclease activity on 293T/17-human CD73 cells [1]: 7 pM | EC50, release of IFN-γ from CD4+ T cells (ELISA of supernatant) [11]: 1 pM

B7: 191C3A8B9 (antibody, mouse IgG1, kappa, V domains shown)
VH: QVQLKESGPGLVAPSQSLSITCTVSGFSLTNYGVHWVRQPPGKGLEWLGVIWAGGSTNYNSALMSRLSISKDNSKSQLFLKMNSLQADDTAMYYCARERGSSWGTMDYWGQGTSVTVSS
VL: QIVLTQSPAIMSASPGEKVTMTCSASSRVSYMHWYQQKSGTSPKRWIYDTSQLASGVPARFSGSGSGTSYSLTISSMEAEDAATYYCQQWSSNPYTFGGGTKLEMRR
EC50 (read off the curve) [12]: 1000 pM | Bottom (fluorescence intensity) [4]: 2.67 | Top (fluorescence intensity) [4]: 105 | IC50, blockade of 5'exonuclease activity on 293T/17-HuCD73 cells [7]: 9 pM | EC50 [9]: 828 pM

B8: JB24H2L1 (antibody, human IgG1, kappa, V domains shown)
VH: QVQLVQSGAEVKKPGASVKMSCKASGYTFTDYNMHWVRQSPGKSLEWIGYIKPHNAGTTYNPKFEGRATLTVDTSASTAYMELSSLRSEDTAVYYCVRSDFLYWYFDVWGQGTTVTVSS
VL: DIQMTQSPSSLSASVGDRVTITCTASSSVSSSYLHWYQQKPGKAPKLLIYSTSNLASGVPSRFSGSGSGTDFTLTISSLQPEDFATYYCHQYHRSPLTFGAGTKLEIKR
EC50 [2]: 2400 pM | EC50 (read off the curve) [3]: 2000 pM | EC50, reversal of AMP-mediated human CD4+ T cell proliferation inhibition [5]: 32 pM | Bottom [6]: 1.64 fluorescence | Top [6]: 82.2 fluorescence | IC50, blockade of 5'exonuclease activity of U87-MG cells [7]: 474 pM | IC50, blockade of 5'exonuclease activity on 293T/17-human CD73 cells [7]: 42 pM | EC50, release of IFN-γ from CD4+ T cells (ELISA of supernatant) [8]: 2 pM

Other lines, results leading:

EC50 [2]: 9150 pM | EC50, reversal of AMP-mediated human CD4+ T cell proliferation inhibition [5]: 32 pM | Bottom [6]: 0.604 fluorescence | Top [6]: 223 fluorescence | IC50, blockade of 5'exonuclease activity of U87-MG cells [7]: 214 pM | IC50, blockade of 5'exonuclease activity on 293T/17-human CD73 cells [7]: 5 pM | EC50, release of IFN-γ from CD4+ T cells (ELISA of supernatant) [8]: 2 pM
B4: JB94H2L1 (antibody, human IgG1, kappa, V domains shown)
VH: QVQLVQSGAEVKKPGASVKVSCKASGYTFTSYWMHWVRQRPGQGLEWMGYINPSSGYTKSNQKFKDRVTLTADTSTSTAYMELSSLRSEDTAVYYCGRWLLSAWFAYWGQGTLVTVSS
VL: DIQMTQSPSSLSASVGDRVTITCKASQDINTYLSWFQQKPGKAPKSLIYRSNILVDGVPSRFSGSGSGQDFTLTISSLQPEDFAIYYCLQYDDFPYTFGQGTKLEIKR

EC50 [2]: 15300 pM | EC50, reversal of AMP-mediated human CD4+ T cell proliferation inhibition [5]: 3 pM | Bottom [6]: 1.78 fluorescence | Top [6]: 239 fluorescence | IC50, blockade of 5'exonuclease activity of U87-MG cells [7]: 456 pM | IC50, blockade of 5'exonuclease activity on 293T/17-human CD73 cells [7]: 4 pM | EC50, release of IFN-γ from CD4+ T cells (ELISA of supernatant) [8]: 3 pM
B5: JB94H3L3 (antibody, human IgG1, kappa, V domains shown)
VH: B4 VH with V5Q, V20L, M48I, V68A
VL: B4 VL with A43S, F71Y

EC50 [2]: 3010 pM | EC50 (read off the curve) [3]: 3000 pM | EC50, reversal of AMP-mediated human CD4+ T cell proliferation inhibition [5]: 22 pM | Bottom [6]: 1.78 fluorescence | Top [6]: 91.7 fluorescence | IC50, blockade of 5'exonuclease activity of U87-MG cells [7]: 270 pM | IC50, blockade of 5'exonuclease activity on 293T/17-human CD73 cells [7]: 14 pM | EC50, release of IFN-γ from CD4+ T cells (ELISA of supernatant) [8]: 15 pM
B9: JB24H3L2 (antibody, human IgG1, kappa, V domains shown)
VH: B8 VH with R38K, P41H, S84R
VL: B8 VL with K43S, L48W, F72Y

EC50 [2]: 7410 pM | EC50, reversal of AMP-mediated human CD4+ T cell proliferation inhibition [5]: 68 pM | Bottom [6]: 0.131 fluorescence | Top [6]: 120 fluorescence | IC50, blockade of 5'exonuclease activity of U87-MG cells [7]: 120 pM | IC50, blockade of 5'exonuclease activity on 293T/17-human CD73 cells [7]: 16 pM | EC50, release of IFN-γ from CD4+ T cells (ELISA of supernatant) [8]: 345 pM
B10: JB24H3L3 (antibody, human IgG1, kappa, V domains shown)
VH: B8 VH with R38K, P41H, S84R
VL: B8 VL with Q3V, K43S, A44S, L48W, S61G, F72Y
